T1: HA-1(H), minor histocompatibility antigen HA-1 variant H; Rho GTPase activating protein 45 (HMHA1) peptide on … (human)
T1 peptide: VLHDDLLEA

T2: HA-1(R), allelic variant of HA-1; Rho GTPase activating protein 45 (HMHA1) peptide on HLA-A*02:01 (human)
T2 peptide: VLRDDLLEA

T3: mH-Y (MiHA-Y) peptide on H-2Db (mouse)
T3 peptide: KCSRNRQYL

B1: KP7 HA-1H TCR (TCR, V domains shown)
Valpha: KNEVEQSPQNLTAQEGEFITINCSYSVGISALHWLQQHPGGGIVSLFMLSSGKKKHGRLIATINIQEKHSSLHITASHPRDSAVYICAVRSVSGAGSYQLTFGKGTKLSVIP
Vbeta: DTGVSQNPRHKITKRGQNVTFRCDPISEHNRLYWYRQTLGQGPEFLTYFQNEAQLEKSRLLSDRFSAERPKGSFSTLEIQRTEQGDSAMYLCASSIDSFNEQFFGPGTRLTVL
B2: H-Y TCRalpha P2A TCRbeta Jb2.3L (TCR, V domains shown)
Valpha: AQSVDQPDAHVTLSEGASLELRCSYSYSAAPYLFWYVQYPGQSLQFLLKYITGDTVVKGTKGFEAEFRKSNSSFNLKKSPAHWSDSAKYFCALEGQDQGGSAKLIFGEGTKLTVSS
Vbeta: EAAVTQSPRNKVAVTGGKVTLSCNQTNNHNNMYWYRQDTGHGLRLIHYSYGAGSTEKGDIPDGYKASRPSQENFSLILELATPSQTSVYFCASGDNSAETLYFGPGTRLLVL

Tests used:
Assay in all cases: activation reporter or marker
[1] = molecular target: T1, HA-1(H), minor histocompatibility …
[2] = molecular target: T2, HA-1(R), allelic variant of HA-1; Rho …
[3] = molecular target: T3, mH-Y (MiHA-Y) peptide on H-2Db

| binding result [1] | binding result [2] | binding result [3] | Binder |
| --- | --- | --- | --- |
| recognises | no recognition | – | B1 |
| – | – | recognises | B2 |
